{"source": "patent US20140024076A1", "about": "(AstraZeneca / MedImmune, published 2014)", "binders": {"B1": {"name": "motavizumab (antibody, V domains shown)", "VH": "QVTLRESGPALVKPTQTLTLTCTFSGFSLSTAGMSVGWIRQPPGKALEWLADIWWDDKKHYNPSLKDRLTISKDTSKNQVVLKVTNMDPADTATYYCARDMIFNFYFDVWGQGTTVTVSS", "VL": "DIQMTQSPSTLSASVGDRVTITCSASSRVGYMHWYQQKPGKAPKLLIYDTSKLASGVPSRFSGSGSGTEFTLTISSLQPDDFATYYCFQGSGYPFTFGGGTKVEIK"}}, "target": "RSV-F protein, full-length, human RSV strain A2 (human respiratory syncytial virus, …, UniProt P03420 26-574)", "assay": "25 nM Eu3+-labeled antibody on tetracycline-induced 293-derived cells, 44 h post induction; time-resolved fluorescence, R3-47 nonspecific binding subtracted"}
{"binder": "B1", "values": [{"measurement": "fold amount of antibody bound, FGC-WPRE cell line compared to FGC cell line", "result": 6.31, "unit": "fold"}]}
